The target in assay [1] is T1, Flag-Smad4, full length, Q13485.
T1 chain: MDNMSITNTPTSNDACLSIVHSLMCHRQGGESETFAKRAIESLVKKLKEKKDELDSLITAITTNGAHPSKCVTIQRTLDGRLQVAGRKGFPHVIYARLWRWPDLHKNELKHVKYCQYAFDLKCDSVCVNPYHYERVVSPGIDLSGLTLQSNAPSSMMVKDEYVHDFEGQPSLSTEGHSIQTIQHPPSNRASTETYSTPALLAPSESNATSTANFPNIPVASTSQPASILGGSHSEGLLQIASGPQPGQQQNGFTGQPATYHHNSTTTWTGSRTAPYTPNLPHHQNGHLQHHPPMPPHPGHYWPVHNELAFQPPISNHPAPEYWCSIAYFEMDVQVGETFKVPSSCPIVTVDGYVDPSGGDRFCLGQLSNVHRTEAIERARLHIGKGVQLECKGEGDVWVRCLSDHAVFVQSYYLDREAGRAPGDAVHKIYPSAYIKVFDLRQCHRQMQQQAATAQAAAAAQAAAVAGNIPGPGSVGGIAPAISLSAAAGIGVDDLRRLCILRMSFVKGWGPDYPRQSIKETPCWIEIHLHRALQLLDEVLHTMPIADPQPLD
The assay is described as follows: co-IP; LUMIER: Renilla luciferase-Smad3 and Flag-tagged partner co-expressed with constitutively active Alk5 in HEK-293; Flag protein captured from cleared lysate (TNE: 10 mM Tris-HCl pH 7.8, 150 mM NaCl, 1 mM EDTA, 1% Igepal CA-630) on anti-Flag 96-well plates, 2 h at 4 °C; co-precipitated Renilla luciferase activity, TrxGA background subtracted, percent of wild-type Smad3. The conditions noted are these: remark: other sources report otherwise.

Assay [2] shares this target. The assay is described as follows: co-IP; LUMIER as a1 but without co-expression of the activated Alk5 kinase (Smad3 not phosphorylated); percent of phosphorylated wild-type Smad3. To be noted: remark: other sources report otherwise.

B1: Renilla luciferase-Smad3 wild type, co-expressed with constitutively active Alk5 (phosphorylated Smad3), P84022 1-425 (natural protein)
chain: MSSILPFTPPIVKRLLGWKKGEQNGQEEKWCEKAVKSLVKKLKKTGQLDELEKAITTQNVNTKCITIPRSLDGRLQVSHRKGLPHVIYCRLWRWPDLHSHHELRAMELCEFAFNMKKDEVCVNPYHYQRVETPVLPPVLVPRHTEIPAEFPPLDDYSHSIPENTNFPAGIEPQSNIPETPPPGYLSEDGETSDHQMNHSMDAGSPNLSPNPMSPAHNNLDLQPVTYCEPAFWCSISYYELNQRVGETFHASQPSMTVDGFTDPSNSERFCLGLLSNVNRNAAVELTRRHIGRGVRLYYIGGEVFAECLSDSAIFVQSPNCNQRYGWHPATVCKIPPGCNLKIFNNQEFAALLAQSVNQGFEAVYQLTRMCTIRMSFVKGWGAEYRRQTVTSTPCWIELHLNGPLQWLDKVLTQMGSPSIRCSSVS
modifications: here or on the partner: phosphorylated by the co-expressed activated Alk5 kinase (sites not given)
For the molecule B1, the percent binding relative to wild-type Smad3 in assay [1] was determined as 100%.

B2: Renilla luciferase-Smad3 wild type, without Alk5 (not phosphorylated), P84022 1-425 (natural protein)
chain: MSSILPFTPPIVKRLLGWKKGEQNGQEEKWCEKAVKSLVKKLKKTGQLDELEKAITTQNVNTKCITIPRSLDGRLQVSHRKGLPHVIYCRLWRWPDLHSHHELRAMELCEFAFNMKKDEVCVNPYHYQRVETPVLPPVLVPRHTEIPAEFPPLDDYSHSIPENTNFPAGIEPQSNIPETPPPGYLSEDGETSDHQMNHSMDAGSPNLSPNPMSPAHNNLDLQPVTYCEPAFWCSISYYELNQRVGETFHASQPSMTVDGFTDPSNSERFCLGLLSNVNRNAAVELTRRHIGRGVRLYYIGGEVFAECLSDSAIFVQSPNCNQRYGWHPATVCKIPPGCNLKIFNNQEFAALLAQSVNQGFEAVYQLTRMCTIRMSFVKGWGAEYRRQTVTSTPCWIELHLNGPLQWLDKVLTQMGSPSIRCSSVS
Take B2: the percent binding relative to wild-type Smad3 in assay [2] came to 6%.

The record behind these values is article PMC3176292.
